These are literature values, as cited in article PMC9691366, “Modulating the pharmacokinetic profile of Actinium-225-labeled macropa-derived radioconjugates by dual targeting of PSMA and albumin” (Theranostics, 2022).

The data set concerns tumor. The following applies: in vivo, 24 h; cited from earlier work.

As to [^177Lu]Lu-PSMA-617, the tumor uptake is reported as 11.20 ± 4.17 %ID/g.
